In patent US20150203577A1 (Chugai, published 2015):

Assays:
mouse FcγRII [1] = target: T1, mouse FcγRII (mouse, UniProt P08101 30-210); test: SPR Biacore T200, KD ratio; upper end tied to MB397 by Table 8
T1 construct: also called mFcγRII; mFcgRII
T1 sequence: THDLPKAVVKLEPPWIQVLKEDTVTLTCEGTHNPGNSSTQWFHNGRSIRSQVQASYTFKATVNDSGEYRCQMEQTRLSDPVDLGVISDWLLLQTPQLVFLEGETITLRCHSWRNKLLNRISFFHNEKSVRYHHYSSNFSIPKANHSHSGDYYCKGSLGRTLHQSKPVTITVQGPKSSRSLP

mouse FcγRII [2] = target: T1, mouse FcγRII; test: SPR Biacore T200, KD ratio
mouse FcγRII [3] = target: T1, mouse FcγRII; test: SPR Biacore T200, KD ratio; lower end tied to MB425 by Table 8
mouse FcγRII [4] = target: T1, mouse FcγRII; test: SPR Biacore T200, KD ratio; lower end tied to MB684 by Table 20
[5] = target: T2, mouse FcγRII extracellular domain, C-terminally His-tagged (mouse, UniProt P08101 30-210); test: SPR Biacore T200
T2 construct: the whole entry is named; also called mFcγRII; mFcgRII
T2 sequence: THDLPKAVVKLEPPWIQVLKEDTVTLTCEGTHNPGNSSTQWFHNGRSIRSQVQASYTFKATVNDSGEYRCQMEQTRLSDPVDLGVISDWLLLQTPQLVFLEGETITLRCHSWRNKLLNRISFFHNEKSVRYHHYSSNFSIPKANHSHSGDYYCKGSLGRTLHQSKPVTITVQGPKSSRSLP

[6] = target: T3, mouse FcγRIII extracellular domain, C-terminally His-tagged (mouse, UniProt P08508 31-215); test: SPR Biacore T200, KD ratio
T3 construct: the whole entry is named; also called mFcγRIII; mFcgRIII
T3 chain: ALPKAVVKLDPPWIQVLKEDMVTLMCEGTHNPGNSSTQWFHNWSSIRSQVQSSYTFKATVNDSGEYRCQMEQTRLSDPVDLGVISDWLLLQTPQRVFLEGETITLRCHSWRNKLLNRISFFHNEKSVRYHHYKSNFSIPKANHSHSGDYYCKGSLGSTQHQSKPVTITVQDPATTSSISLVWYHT

mouse FcγRII [7] = target: T1, mouse FcγRII; test: SPR Biacore T200, KD ratio; upper end tied to MB682 by Table 20

B1: H237-MB397/MRAL-k0 (antibody, mouse IgG1, kappa)
heavy: QVQLQESGPGLVKPSETLSLTCAVSGHSISHDHAWSWVRQPPGEGLEWIGFISYSGITNYNPSLQGRVTISRDNSKNTLYLQMNSLRAEDTAVYYCARSLARTTAMDYWGEGTLVTVSSAKTTPPSVYPLAPGSAAQTNSMVTLGCLVKGYFPEPVTVTWNSGSLSSGVHTFPAVLQSDLYTLSSSVTVPSSTWPSETVTCNVAHPASSTKVDKKIVPRDCGCKPCICETYEVEDVFIFPPKPKDVLTITLTPKVTCVVVDISKDDPEVQFSWFVDDVEVHTAQTQPREEQFNSTFRSVSELPIMHQDWLNGKEFKCRVNSAAFPAPIEKTISKTKGRPKAPQVYTIPPPKEQMAKDKVSLTCMITDFFPEDITVEWQWNGQPAENYKNTQPIMDTDGSYFVYSKLNVQKSNWEAGNTFTCSVLHEGLHNHHTEKSLSHSPGK
light: not shown
notes: mIgG1 with T230E/V231T/P232Y/S238E/S239D; also called template T4; copies: 2 + 2
relative mFcγRII-binding activity (H237-mIgG1/MRAL-k0 = 1) (mouse FcγRII [1]): 600 fold | relative mFcγRII-binding activity (H237-mIgG1/MRAL-k0 = 1) (mouse FcγRII [2]): > 500 fold

B2: H237-MB425/MRAL-k0 (antibody, mouse IgG1, kappa)
heavy: QVQLQESGPGLVKPSETLSLTCAVSGHSISHDHAWSWVRQPPGEGLEWIGFISYSGITNYNPSLQGRVTISRDNSKNTLYLQMNSLRAEDTAVYYCARSLARTTAMDYWGEGTLVTVSSAKTTPPSVYPLAPGSAAQTNSMVTLGCLVKGYFPEPVTVTWNSGSLSSGVHTFPAVLQSDLYTLSSSVTVPSSTWPSETVTCNVAHPASSTKVDKKIVPRDCGCKPCICIPAEVEDVFIFPPKPKDVLTITLTPKVTCVVVDISKDDPEVQFSWFVDDVEVHTAQTQPREEQFNSTFRSVSELPIMHQDWLNGKEFKCRVNSAAFPAPIEKTISKTKGRPKAPQVYTIPPPKEQMAKDKVSLTCMITDFFPEDITVEWQWNGQPAENYKNTQPIMDTDGSYFVYSKLNVQKSNWEAGNTFTCSVLHEGLHNHHTEKSLSHSPGK
light: not shown
notes: mIgG1 with T230I/V231P/P232A/S238E/S239D; also called template T7; copies: 2 + 2
relative mFcγRII-binding activity (H237-mIgG1/MRAL-k0 = 1) (mouse FcγRII [3]): 200 fold

B3: MB684 (antibody)
heavy: QVQLQESGPGLVKPSETLSLTCAVSGHSISHDHAWSWVRQPPGEGLEWIGFISYSGITNYNPSLQGRVTISRDNSKNTLYLQMNSLRAEDTAVYYCARSLARTTAMDYWGEGTLVTVSSAKTTPPSVYPLAPGSAAQTNSMVTLGCLVKGYFPEPVTVTWNSGSLSSGVHTFPAVLQSDLYTLSSSVTVPSSTWPSETVTCNVAHPASSTKVDKKIVPRDCGCKPCICQPKEVEDVFIFPPKPKDVLTITLTPKVTCVVVDISKDDPEVQFSWFVDDVEVHTAQTQPREEQFNSTFRSVSELPIMHQDWLNGKEFKCRVNSAAFPAPIEKTISKTKGRPKAPQVYTIPPPKEQMAKDKVSLTCMITDFFPEDITVEWQWNGQPAENYKNTQPIMDTDGSYFVYSKLNVQKSNWEAGNTFTCSVLHEGLHNHHTEKSLSHSPGK
light: not shown
notes: copies: 2 + 2
relative mFcγRII-binding activity (H237-mIgG1/MRAL-k0 = 1) (mouse FcγRII [4]): 5 to 15 fold

B4: H237-MB656/MRAL-k0 (antibody, mouse IgG1, kappa)
heavy: QVQLQESGPGLVKPSETLSLTCAVSGHSISHDHAWSWVRQPPGEGLEWIGFISYSGITNYNPSLQGRVTISRDNSKNTLYLQMNSLRAEDTAVYYCARSLARTTAMDYWGEGTLVTVSSAKTTPPSVYPLAPGSAAQTNSMVTLGCLVKGYFPEPVTVTWNSGSLSSGVHTFPAVLQSDLYTLSSSVTVPSSTWPSETVTCNVAHPASSTKVDKKIVPRDCGCKPCICIPAEVEFVFIFPPKPKDVLTITLTPKVTCVVVDISKDDPEVQFSWFVDDVEVHTAQTQPREEQFNSTFRSVSELPIMHQDWLNGKEFKCRVNSAAFPAPIEKTISKTKGRPKAPQVYTIPPPKEQMAKDKVSLTCMITDFFPEDITVEWQWNGQPAENYKNTQPIMDTDGSYFVYSKLNVQKSNWEAGNTFTCSVLHEGLHNHHTEKSLSHSPGK
light: not shown
notes: copies: 2 + 2
binding result [5]: no binding | relative mFcγRIII-binding activity (mIgG1 = 1) [6]: 0.02 fold

B5: MB682 (antibody)
heavy: QVQLQESGPGLVKPSETLSLTCAVSGHSISHDHAWSWVRQPPGEGLEWIGFISYSGITNYNPSLQGRVTISRDNSKNTLYLQMNSLRAEDTAVYYCARSLARTTAMDYWGEGTLVTVSSAKTTPPSVYPLAPGSAAQTNSMVTLGCLVKGYFPEPVTVTWNSGSLSSGVHTFPAVLQSDLYTLSSSVTVPSSTWPSETVTCNVAHPASSTKVDKKIVPRDCGCKPCICEPKEVEDVFIFPPKPKDVLTITLTPKVTCVVVDISKDDPEVQFSWFVDDVEVHTAQTQPREEQFNSTFRSVSELPIMHQDWLNGKEFKCRVNSAAFPAPIEKTISKTKGRPKAPQVYTIPPPKEQMAKDKVSLTCMITDFFPEDITVEWQWNGQPAENYKNTQPIMDTDGSYFVYSKLNVQKSNWEAGNTFTCSVLHEGLHNHHTEKSLSHSPGK
light: not shown
notes: copies: 2 + 2
relative mFcγRII-binding activity (H237-mIgG1/MRAL-k0 = 1) (mouse FcγRII [7]): 5 to 15 fold
